The source of these data is publication PMC3042044.

One experiment concerns the target Hst2 (yeast) (UniProt P53686). In words: ITC. On the technique in general: ITC needs no label: the signal is the heat of the interaction.
Experiment [1] deals with SIRT3 (human). In words: fluorescence polarisation. A general note: Polarisation of emitted light reports the rotation of a fluorescent probe.
The target in experiment [2] is SIRT3 (human). As to the kind of experiment: ITC.

The star is where a group is joined. CSCF3 = thiotrifluoroacetyl on lysine, FC(F)(F)C(=S)*; fluorescein = fluorescein label at the N-terminus

UniProt P53686, sequence (P53686 whole entry): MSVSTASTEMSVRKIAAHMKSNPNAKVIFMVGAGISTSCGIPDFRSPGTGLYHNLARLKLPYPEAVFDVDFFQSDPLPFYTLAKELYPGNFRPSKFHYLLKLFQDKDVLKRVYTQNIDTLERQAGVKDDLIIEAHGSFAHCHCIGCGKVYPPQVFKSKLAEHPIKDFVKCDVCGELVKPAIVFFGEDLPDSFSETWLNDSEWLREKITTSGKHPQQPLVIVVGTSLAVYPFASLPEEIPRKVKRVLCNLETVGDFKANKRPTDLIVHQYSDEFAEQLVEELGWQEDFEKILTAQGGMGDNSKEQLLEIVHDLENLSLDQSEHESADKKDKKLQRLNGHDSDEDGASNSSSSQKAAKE

Take “Histone H3 peptide with pentafluoropropionyl-lysine at Lys-14”: in the experiment with Hst2 (yeast), the Kd (as a rule, the equilibrium constant for the complex coming apart) turned out to be 950 nM.
As to fluorescein-LPKTRSGK(CSCF3)VMRR-OH, the results for the Kd with SIRT3 (human) [1] and in the experiment with SIRT3 (human) [2] were 1700 nM and 900 nM, respectively.
